Results: the nanobody polyreactivity screen of Harvey et al. (2022)

Experiment: yeast display, Sf9 membrane polyspecificity reagent, FACS + sequencing; frameworks hold sequencing errors
Method in brief: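 Synthetic nanobody libraries on Saccharomyces cerevisiae BJ5465 were galactose-induced for 36–48 hours, stained 1 hour at 4 °C with 10% biotinylated, detergent-solubilized Sf9 membrane reagent and enriched on streptavidin microbeads. FACS then separated cells into low and high (top ~1%) gates by anti-HA (expression) and streptavidin (reagent binding) fluorescence. Genes were colony-PCR amplified, MiSeq 2 × 250 sequenced and CDR-length filtered. A clone's polyreactivity label is that of its gate of origin.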

Row | Sequence | polyreactivity (PSR sort gate)
1 | QVQLVESGGGLVQAGGSLRLSCAASGRILSGNAMGWYRQAPGKERELVAAITNAGITKYADSVKGRFTISRDNAKNTVYLQMNSLKPEDTAVYYCATDRYAYKLYDYWGQGTQVTVSS | low polyreactivity
2 | QVQLVESGGGLVQAGGSLRLSCAASGRTFWYYTMGWYRQAPGKERELVASISRVTSTYYADSVKGRLTISRDNAKNTVYLQMNSLKPEDTAVYYCAADRTRYYVGYRWTGNKMDYWGQGSQVTVSS | low polyreactivity
3 | QVQVVESGGGLVQAGGSLRLSCAASGSTFPVYAMGWYRQAPGKERELVAAISRSGASTYADSVKGRFTISRDNAKNTVYLQMNSLKPEDTAVYYCNKDPGNVSSYTGGGYWGQGTQVTVSS | low polyreactivity
4 | QVQLVESGGGLVQAGGSLRLSCAGSGSTFYRYALGWYRQAPGKEWEWVAVINSGCSTYYADSVKGRFTISRDNAKHTVYVQMNSMKPEDTAVSYCAAVRNQGGYVYGYGYWGQGTQVTVSS | high polyreactivity
5 | QVQLVESGGGLVQAGGSLRLSCAGSGRTFWANTMGWYIQAPGKEREFVAAISGRDVSTYYADSVKGRFTISRDNAKNTVFLQMNSLKPEDTAVYYCAAQWQYLGHMGYWGQGTQVTVSS | low polyreactivity
6 | QVHLVDSGVGLVQAGGSLRLSCAASGYTFVPYAMGWYRQAPGKERELVAAISSSGGSTYYADAVKGRFTISRDNAKNTVYLQMNSRKPEDSAVYYWAADYRTGQFYAGFDYWGQGTQVTVSS | high polyreactivity
7 | QVQLVESGGGLVQAGGSLRLSCAASGNTLGYYAMGWYRQAAGKARELVATICDDGTTYYADSVKGRFTISRDNAMNTVYLQMNSLSPEETAVYYCASVGSAQYSMDYWGDGTQVTVSS | low polyreactivity
8 | QVQLVESGGGLVQAGGSLRLSCAASGSTFVYNAMGWYRQAPGKERELVASITRSGSSTYYADSVKGRFTISRDNAKNTVYLQMNSLKPEDTAVYYCAVRYSVLSNYRYYYWGQGTQVTVSS | low polyreactivity
9 | QVQLLESGGGLVQAGGSLRLSCAASGNLFHVNAMGWYRQAPGKERELVASISRRGGSTNYADSVKGRFTISRANAKNTVYLQMNSLKPEDTAVYYCATRLTSAVGRYLYDFGYWGQGTQVTVSS | high polyreactivity
10 | QVQLVESGGGLVQAGGSLRLSCAASGFTFWTYARGWYRQAPGKERELVAAIDSGGSTYYADSVKGRFTISRDNAKNTVYLQMNSLKPEDTAVYYCNAGPSVTSGYDYDYWGQGTQVTVSS | low polyreactivity
11 | QVQLVESGRGLVQAGGSLRLSCAASGIIFSSYAMGWYRQAPGKERELVAAISYSGGSTYYADSVKGLFSISRDNAKNTVYLEMNCLIPEDTAVYYCAAQGYSPGGYDYWGQGTQVTVSW | low polyreactivity
12 | QVQLVESGGGLVQAGGSLRLSCAASGSIFKSYAMGWYRQAPGKERELVAAISGRTGSTYYADSVKGRFTISRDNAKNTVSLQMNSLKPEDTAVYYCAAKSQSLYPFAMNYWGQGTQVTVSS | high polyreactivity
13 | QVQLVESGGGLVQAGGSLRLSCAASGSIFKPYAMGWYRQAPGKERELVAAISSSGGSTYYADSVKGRFTISRDNAKNTVYLQMNSLKPEDTAVYYCNADWYYAGYGYWGQGTQVTVSS | low polyreactivity
14 | QVQLVESGGGLVQAGGSLRLSCAASGITFGDNTMGWYRQAPGKERELVAAITYSSTSTYYADSVKGRFTISRDNAKNTVYLQMNSLKPEDTAVYYCAAEGPGDVVSTDYDYWGQGTQVTVSS | low polyreactivity
15 | QVQLVESGGGLVQAGGSLRLSCAASGLIFYGNAMGWYREAPGKERELVAAISRRGGRTYYADSVKGRYTISRDNAKNTVYLQMNSLKPEDTAVYYCAAGVPKNGQAGYDYWGQGTQVTVSS | high polyreactivity
16 | QVQLVESGGGLVQAGGSLRLSSAASGRIFYGYTMGWYRQAPGKERELVAAITQSSGSTYYADSVKGRFTISRDNAKNTVYLQMNSLKPEDTAVYYCARDPGRRYSYTYDYWGQGTQVTVSS | low polyreactivity
17 | QVQLVESGGGLVQAGGSLRLSCAASGINFTSYAMGWYRQAPGKERELVAAISSSGVRTYYADSVKGRFTISRDNAKNTVYLQMNSQKPEDTAVYYCATRRRVLYGYDYWGQGTQVTVSS | high polyreactivity
18 | QVQLVESGGGLVQAGGSLRLSCAASGFTFERNAMGWYRQAPGKERELVATISQSGTNTYYADSVKGRFTISRDNAKNTVYLQMNSLKPEDTAVYYCNARYLFYRYDYWGQGTQVTVSS | low polyreactivity
19 | QVQLVDSGGGLVQAGGSLRLSCAASGFIFSSYAMVWYRQAPGKERELVAAISRSGGYTYYADSVKGRFTISRDNAKNTVYFQMNSLNAEDTAVYYCATRSYMPGVRRGYDYWGKGTQVTVSS | high polyreactivity
20 | QVQLVESGGGLVQAGGSLRLSCAASGSIFTRYAMGWYRQAPGKERELVAAISWIGTRTYYADSVKGRFTISRDNAKNTVYLQMNSLKPEDTAVYYCNAVSKVERYSYPHGRPFEYWGQGTQVTVSS | high polyreactivity
21 | QVQLVESGGGLVQAGGSLRLSCAASGFIFVPYTMGWYRQAPGKERELVATINSNGGSTYYADSVKGRFTISRDNAKNTVYLQMNSLKPEDTAVYYCAAYYRWIGGRYTPYYYWGQGTQVTVSS | high polyreactivity
22 | QVQLVESGGGVVQAGGSLRLSCAASGRIFKSYAMGWYRPAPGKERELVASISYTGGSTYYAASVKGRFTISRDNAKNTVYLQMNRLKPEDTAVYDCAAKRVRSAGSYGYWGQGTQVTVSS | low polyreactivity

Row | Sequence | polyreactivity (PSR sort gate)
23 | QVQLVESGGGLVHAGGSLRLSCAASGRTFKYYGMGWYREAPGKERELVATISRSSSRTYYADSVKGRFTISRDNAKNTVYLQMNSLKPEDTAVYYCAADRWGARRKQYDENGYWGQGTQVTVSS | high polyreactivity
24 | QVQLVESGGGLVQAGGSLRLSCAASGFIFYNYAMGLYRQAPGKERELVAAISASGGRTYYADSVKGRFTISRDNAKNTVYLQMNRLKPEDTAVYYCNARVNYKGYDYWGQGTQVTVSS | high polyreactivity
25 | QVQLVESGGGLVQAGGSLRLSCAASGFTFVRYVMGWSRQAPGKERELVAAISRSGGSTHYADSVKGRFTISRDNAKNTVYLQMNSLKPEDTAVYYCAAASPRWPGQGDYWGQGTQVTVSS | high polyreactivity
26 | QVQLVESGGGLVQAGGSLRLSCAASGIIFKGYDMGWYRQAPGKERELVAAISSGSTNYADSVKGRFTISRDNAKNTVYLQMNSLKPEDTAVYYCAAYNDTVPSAAHIYESWGQGTQVTVSS | low polyreactivity
27 | QVQLVESGGGLVQAGGSLRVSCAASGLTFKYNALGWYIQAPGKERELVASISSGSTNYADSVKGRFTISRDNAKNSVYLEMNSLKPEDTSVYYCAASVSRGKRFRYGYVFKMDYWGQGTQLTVSS | low polyreactivity
28 | QVQHVESGGGLVQAGGSLRLSCAASGRIFYAYAMGWYRQAPGKQREMVAAITARGGSTYYADSVKGRFTISRDNAKNTVYLQINSLKPEDTAVYYCAKDTLLETGYEYWGQGTQVTVSS | high polyreactivity
29 | QVQLVESGGGLVQAGGSLRLSCAASGRTFYAYTMGWYRQAPGKERELVAAISSSGGSTYYADSVKGRFTISRDNAKNTVYLQMNSLKPEDTAVYYCAAVWYFNRRVSGYYYWGQGTQVTVSS | high polyreactivity
30 | QVQLVESGGGLVQAGGSLRLSCAASGSIFLPNAMGWYRQAPGKEWELVAAISWSGGSTYADSVKGRFTISRDNAKNTVYLQMNSLKPEDTAVYYCAADDGFTPRDLYVGYDYWGLGTQVTVSS | low polyreactivity
31 | QVQLVESGGGLVQAGGSLRLICAASGLTFSIYAMGWYRQAPGKERELVAAITGRGGRTYYADSVKGRFTISRDNAKNTVYLQMNSLKPEDTAVYYCAARYRGTDFDYWGQGTQVTVSS | high polyreactivity
32 | QFQLVESGGRLVQAGGSLRLSCAASGFIFWYNAMGWYRQAPGKEREFVAAISSGGSTTYADSVKGRFTISRDNAKNTVYLQMNSLKPEDTAVSYCAAGSYDYDYWGQGTQVTVSS | low polyreactivity
33 | QGQRVESGGGLVQAGGSLRLSCAASGSTFPWYAMGWYRQARGSERELVAGISEGGASTYYADSVKGRFTISRDNAKNTVYLQMNSLNPEDTAVYYCAADQVGAVYWVGEYGYWGQGTHVTVSS | low polyreactivity
34 | QVHLVESGGGLVHAGGRLRLSCAASGRIFGLNAMGWYRQAPGKERELVAAIDIIGGSTYYADSVKGRFTISRDNAKNTVYLQMNSLIPEDTAVFYCAAEADFWRFVEFDYWGQGTQVTVSS | low polyreactivity
35 | QVQLVESGGGLVQAGGSLRLSCAASGSIFRYYAMGWYIQAPGKEMELVAAITSSGGSTYYADSVKGRFTISRDNAKNTVYLQMNSLKPEDTAVYDCNARHVRYSRRENDYWGQGTQGTVSS | high polyreactivity
36 | QVHLVESGGGLVQAGGSLRLSCAASGSIFNLYGMGWYRQAPGKERELVASITSSGTRTYYADSVKGRFTISRDNAKNTVYLQMNSLKPEDTAVYYCAAGSYLRSNRGYWGQGTQVTVSS | high polyreactivity
37 | QVQLVESGGGLVQAGGSLRLSCAASGSTCVSNAMGWYRQAPGKERELVAAISSGDNTNYADSVKGRFTISRDNAKNTVYVQMNSLKPEDTAVYYCAARAYRWRSFSTMYYWGQGTQVTVST | high polyreactivity
38 | QVQLVESGGGLVQAGGSLRLSCAASGTTFSVNAMGWYRQAPGKERELVAAIDYSGGSTYYADSVKGRFTISRDNAKNTVYLQMNSLKPEDTAVYYCNADAYGTPEFTSYAVRYDYWGQGTQVTVSS | low polyreactivity
39 | QDQLVESGGGLVQAGGSLRLSCAASGLIYSYYALGWSRQATGKERELVASISRSGGSTYYADSVKGRFTISRDNAKNTVYLQMNILKPEDPAVYYCDAPGYYRTSRMDYWGQGTQVTVSS | high polyreactivity
40 | QVQLVESGGALVQAGGSLRLSCAASGSTFVQNAMGWYRQAPGKDRELVAAITIGGGSTYYADSVKGRFTISRDNAKNTVYLQMNSLKPEDTAVYYCAVEVGNPQLAYSYDYWGQGTQVTVSS | low polyreactivity
41 | QVQLVESGGGLVQAGGSLRLSCAASGRIFQGYAMGWYRQAPRKERELVASITVRGGTTYYADSVKGRFTISRDHAKNTVYLQMISLKPEDTAVYYCNAAKLIHGYQSVYPGSNSRYYYWGQGTQVTVSS | low polyreactivity
42 | QVQLVESGGGLVQAGGSLRLSCAASGSISYFYAMGWYRQAPGKERELVAAINSGDDTYADSVKGRFTISRDNAKNTVYLQMNSLKPEDTAVYYCAVKYGGYESHYYRRPHYDYWGQGTQVTVSS | low polyreactivity
43 | QVQLVESGGGIVQAGGRLRLSCAASGFTFGKYAMGWYRQAPGKERELVAAISRSGGSTYYADSVKGRFTISRDNAKFTVYLPMNSLKPVDTAVYYCAAYHPIQEYDYWGQGTQVTGSS | high polyreactivity
